# Article PMC7486200
# B1: mutant GATA competitor (dsDNA)
# DNA 1: CACTTAGCGACACAAAGTAGCGACTCT
# DNA 2: AGAGTCGCTACTTTGTGTCGCTAAGTG
# B2: GATA probe, two GATA sites (dsDNA)
# DNA 1: CACTTGATAACACAAAGTGATAACTCT
# DNA 2: AGAGTTATCACTTTGTGTTATCAAGTG
# How the values were obtained:
# [1] = biological target: GATA1 (UniProt P15976 1-413); assay: competition
# [2] = biological target: FAM122A (UniProt Q96E09 1-287); assay: EMSA
# Chain of FAM122A (Q96E09 whole entry): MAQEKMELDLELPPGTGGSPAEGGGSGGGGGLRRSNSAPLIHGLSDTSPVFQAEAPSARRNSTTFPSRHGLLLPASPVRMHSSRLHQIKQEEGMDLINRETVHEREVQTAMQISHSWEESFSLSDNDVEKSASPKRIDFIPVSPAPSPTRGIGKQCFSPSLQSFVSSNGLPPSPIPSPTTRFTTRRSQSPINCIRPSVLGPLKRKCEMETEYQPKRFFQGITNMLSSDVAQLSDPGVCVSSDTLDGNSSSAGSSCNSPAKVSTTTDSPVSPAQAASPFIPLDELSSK
# Chain of GATA1 (P15976 whole entry): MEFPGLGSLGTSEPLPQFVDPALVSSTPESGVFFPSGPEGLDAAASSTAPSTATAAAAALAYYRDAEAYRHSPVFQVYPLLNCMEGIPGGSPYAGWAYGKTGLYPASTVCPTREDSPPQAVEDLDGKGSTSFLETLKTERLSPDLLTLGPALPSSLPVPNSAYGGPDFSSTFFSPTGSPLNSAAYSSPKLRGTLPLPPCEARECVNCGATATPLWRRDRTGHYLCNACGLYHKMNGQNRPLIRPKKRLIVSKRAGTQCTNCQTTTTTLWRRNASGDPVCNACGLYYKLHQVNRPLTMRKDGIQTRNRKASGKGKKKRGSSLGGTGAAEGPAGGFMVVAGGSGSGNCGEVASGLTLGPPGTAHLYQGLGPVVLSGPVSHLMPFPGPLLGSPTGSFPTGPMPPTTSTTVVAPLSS
Binder,binding result [1],binding result [2]
B1,no binding,–
B2,–,no binding
